Columns and labels:
[1] = target: mouse TfR protein (mouse) (UniProt Q62351)
Aβ1-42 aggregates = Aβ1-42 aggregates (UniProt P05067); experiment: ELISA; sandwich ELISA; 1 nM Aβ1-40 monomers or 1 nM Aβ1-42 aggregates held by coated rabbit polyclonal antibodies (C-terminal of Aβ, or Aβ1-42); serial dilutions of the recombinant proteins in 0.1% BSA, 0.05% Tween-20 in PBS, 2 h at RT; goat anti-mouse HRP
Aβ1-40 monomers = Aβ1-40 monomers (UniProt P05067); experiment: as above
Sequence of Aβ1-40 monomers (P05067 672-711): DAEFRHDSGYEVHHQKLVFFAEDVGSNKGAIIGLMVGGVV

Sequence of Aβ1-42 aggregates (P05067 672-713): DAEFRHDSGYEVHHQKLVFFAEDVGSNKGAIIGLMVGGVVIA

With sNEP-scFc-scFv8D3 (Fc fusion) the brain uptake (%ID per gram brain tissue) 2 h after intravenous injection of the 125I-labelled protein (0.05 mg/kg) in tg-ArcSwe mice, against sNEP without scFv8D3 [1] was 20 fold, the fold weaker binding than the 3D6 antibody control (Aβ1-42 aggregates) was 100 fold and the fold weaker binding than the 3D6 antibody control (Aβ1-40 monomers) was 50 fold.

From paper PMC9720954
